Target: the molecule itself
Experiment: cryo-EM structure

B1: Rice OsPHT1;11 (OsPT11) (natural protein)
chain: MADADGGSNLAVLDALDSARTQMYHMKAIVIAGMGFFTDAYDLFCISTVSKLLGRLYYQPDGSTDSKPGALSKTANNMVIGVALVGTLMGQLVFGYFGDKLGRKRVYGVTLILMAACAIGSGLSFGSSRKAVIGTLCFFRFWLGFGIGGDYPLSATIMSEYSNKKTRGAFIAAVFAMQGVGIIFAGLVSMIVSSIFLTYNKAPSYKGNHDLSRQMPAADYVWRIVLMIGAFPALATFYWRMKMPETARYTAIIDGNAKQAANDMQKVLSIEIEAEQEKLAKFNAANNYPLLSMEFARRHGLHLIGTTTTWFLLDIAFYSQNLTQKDIFPAMGLISGAAEVNALTEMFQISKASFLVALLGTFPGYWVTVALIDKMGRYMIQLIGFFMMSMFMLAMGILYDYLKTHHFLFGLLYALTFFFANFGPNSTTFVLPAELFPTRVRSTCHAISAAAGKAGAIVAAFGIQKLTYNSQVKSIKKALIILSITNMLGFFFTFLVPETMGRSLEEISGEDGNTGAGGGGAPAAANAGVGVSASDVSRDEKFPASSTEWQTSMHA
Q: B1 was tested. Which “stoichiometry N” value did it give?
A: Its value is 2.

Reference: paper doi:10.1101/2025.08.04.668567 (bioRxiv, 2025)
